Assay [1] deals with T1, hCD137-muFc (human; mouse, UniProt Q07011 24-186).
T1 construct: range 1-186; It states no cleavage site; Made in HEK293 and purified on protein A; also called recombinant human CD137; not shown: mouse IgG1-Fc (muFc) domain, residues 98-324 of UniProt P01868
Nature of the assay: SPR, BIAcore X100; scFv captured by anti-hFc on a CM5 chip, CD137-muFc as analyte 1000-31.6 nM; 1:1 Langmuir model. As for the experimental part: (§1) The binding kinetics of anti-hCD137 C2scFv and C14 scFv antibodies against the recombinant human CD137 were measured by surface plasmon resonance (SPR) process using a BIAcore X100 instrument. Anti-hFc antibody (not cross-identifying mouse Fc) was conjugated on CM5 chip, C2 scFv or C14 scFv was diluted to 5 nM with running buffer and captured as a ligand by the antibody on the chip. CD137-muFc was diluted with running buffer to 1000-31.6 nM, diluted twice to a total of 6 concentrations. The injection time was 180 s, the dissociation time was 1800 s and the regeneration time was 60 s. The running buffer was HBS-EP+, and the regeneration buffer was 10 mM glycine-HCl (pH 2.0). The association rate (Kₒₙ) and the dissociation rate (Koff) were calculated using a simple one-to-one Languir binding model (BIAcore Evaluation Software version 3.2). The equilibrium dissociation constant (KD) was calculated as the ratio of Koff/Kₒₙ.
For orientation: SPR reads the build-up and loss of mass on a sensor chip optically.

Assay [2] has as its target T2, hCD27-EGFP on HEK293 cells (human, UniProt P26842 20-260).
T2 construct: EGFP fusion on transfected HEK293 cells; not shown: enhanced green fluorescent protein (EGFP), UniProt C5MKY7
T2 sequence (looked up): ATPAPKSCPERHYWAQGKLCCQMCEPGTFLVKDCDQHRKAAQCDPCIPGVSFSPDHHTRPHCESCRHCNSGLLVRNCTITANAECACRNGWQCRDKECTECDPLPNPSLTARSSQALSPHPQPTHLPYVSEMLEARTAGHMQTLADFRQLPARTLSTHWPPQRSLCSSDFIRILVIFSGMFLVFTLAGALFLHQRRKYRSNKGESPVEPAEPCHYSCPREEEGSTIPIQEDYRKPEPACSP
Nature of the assay: flow cytometry on transfected HEK293 cells, anti-hIg-PE. As for the experimental part: (§2) HEK293 cells expressing hCD137-EGFP, hOX40-EGFP, hCD27-EGFP and hGITR-EGFP constructed in Example 1 were resuspended in 0.5% PBS-BSA Buffer and anti-hCD137 C2scFv and C14 scFv protein were added, the negative control was hIgG Fe protein, then the mixture was incubated on ice for 20 min. After washing, secondary antibody anti-hIg-PE (eBioscience) was added and was incubated on ice for 20 min. After washing, the cells were resuspended in 500 μL of 0.5% PBS-BSA Buffer and detected by flow cytometry.
(§3) HEK293 cells expressing hCD137-EGFP, hOX40-EGFP, hCD27-EGFP and hGITR-EGFP constructed in Example 1 were resuspended in 0.5% PBS-BSA Buffer and anti-hCD137 C14 mAb protein was added, the negative control was hIgG Fc protein, then the mixture was incubated on ice for 20 min. After washing, a secondary antibody anti-hlg-PE (eBioscience) was added and incubated on ice for 20 min. After washing, the cells were resuspended in 500 μL 0.5% PBS-BSA Buffer and detected by flow cytometry.
On the technique in general: A flow cytometer gives signals particle by particle.

Assay [3] addresses T3, hOX40-EGFP on HEK293 cells (human, UniProt P43489 29-277).
T3 construct: EGFP fusion on transfected HEK293 cells; not shown: enhanced green fluorescent protein (EGFP), UniProt C5MKY7
T3 sequence (looked up): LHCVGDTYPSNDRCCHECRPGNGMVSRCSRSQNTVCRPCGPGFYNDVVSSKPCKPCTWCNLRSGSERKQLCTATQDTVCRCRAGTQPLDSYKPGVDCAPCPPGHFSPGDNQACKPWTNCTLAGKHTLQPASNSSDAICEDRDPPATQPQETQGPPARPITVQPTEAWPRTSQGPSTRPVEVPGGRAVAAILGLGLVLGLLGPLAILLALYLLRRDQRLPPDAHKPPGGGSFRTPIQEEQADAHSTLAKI
The description is as above. As for the experimental part: as §2, §3

In assay [4] the target is T4, hGITR-EGFP on HEK293 cells (human, UniProt Q9Y5U5 26-241).
T4 construct: EGFP fusion on transfected HEK293 cells; not shown: enhanced green fluorescent protein (EGFP), UniProt C5MKY7
T4 sequence (looked up): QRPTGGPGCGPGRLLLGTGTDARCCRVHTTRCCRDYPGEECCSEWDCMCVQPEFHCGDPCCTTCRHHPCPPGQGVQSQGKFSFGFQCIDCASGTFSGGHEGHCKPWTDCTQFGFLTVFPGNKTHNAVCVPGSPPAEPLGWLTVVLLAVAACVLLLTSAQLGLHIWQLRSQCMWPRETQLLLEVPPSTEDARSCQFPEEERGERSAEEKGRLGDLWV
The assay is described as above. The method, then: as §2, §3

For the next assay, the target named is T5, RhCD137-muFc (rhesus monkey; mouse).
T5 construct: Residues 1-186 as stated; no signal peptide cleavage site is stated; also called Rhesus monkey CD137; CD137 of rhesus monkey
T5 chain: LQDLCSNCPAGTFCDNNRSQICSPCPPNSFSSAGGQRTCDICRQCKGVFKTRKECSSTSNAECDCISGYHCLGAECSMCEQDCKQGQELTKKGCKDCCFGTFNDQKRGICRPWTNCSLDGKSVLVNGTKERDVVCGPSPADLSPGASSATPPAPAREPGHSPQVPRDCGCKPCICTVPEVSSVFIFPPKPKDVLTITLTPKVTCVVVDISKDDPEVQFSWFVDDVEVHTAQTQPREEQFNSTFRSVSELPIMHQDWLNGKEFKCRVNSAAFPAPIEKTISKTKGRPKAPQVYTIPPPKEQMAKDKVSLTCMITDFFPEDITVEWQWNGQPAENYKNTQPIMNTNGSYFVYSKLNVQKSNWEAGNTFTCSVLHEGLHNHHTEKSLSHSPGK
Nature of the assay: ELISA, RhCD137-muFc coated at 5 ug/mL, antibody titrated 3-fold, goat anti-hIgG-HRP, OD450-650. As for the experimental part:
RhCD137-muFc was diluted to 5 μg/mL 100 μL/well, with coating buffer (50 mM Na₂CO₃, NaHCO₃ pH 9.6), overnight at 4° C. After washing, the plates were blocked with 3% BSA-PBS for 1 h at 37° C. Anti-hCD137 14#mAbnew antibodies were respectively diluted from 2000 ng/mL and were diluted 3-fold, with the diluent (1% BSA-PBS) as a control, and incubated for 2 h at 37° C. Goat anti-hIgG-HRP conjugated was added and incubated for 1 h at 37° C. The soluble one-component TMB substrate developing solution was added, and the developing was performed in dark at room temperature for 5-10 min. 2N H₂SO₄ 50 μL/well was added to terminate the color development reaction. The OD_{450 nm-650 nm} values were read on MD Spectra Max Plus 384 microplate reader, and SoftMax Pro v5.4 was used for data processing and diagraph analysis, with the results shown in FIG. 8, in which it can be seen that anti-hCD137 14#mAb new may bind to CD137 of rhesus monkey.

Assay [5] addresses T1, hCD137-muFc. Nature of the assay: SPR, BIAcore X100; anti-hFc on a CM5 chip, CD137-muFc as analyte 100-3.16 nM; 1:1 Langmuir model. The method, then: as §1, with “antibody” for “C2scFv and C14 scFv antibodies”, “CD137-muFc” for “C2 scFv or C14 scFv”, “nM (C14Mab) or 100-3.16 nM (C14 Mab new),” for “nM,”

Positions count from the first letter of the chain named.

B1: anti-hCD137 C14 scFv (scFv)
scFv: QVQLQQSGPGLVKPSQTLSLTCAISGDSVSSNSAAWNWIRQSPSRGLEWLGRTYYRSKWYNDYAPSVESRITINPDTSKNQFSLQLSSVTPEDTAVYYCARDPPYVLSTFDIWGQGTMVTVSSGGGGSGGGGSGGGGSNFMLTQPPSVSESPGKTVTISCTRSSGNIASFYVQWFQQRPGSSPTTVIYEDDQRPSGVPDRFSGSIDRSSNSASLTISGLTTDDEADYYCQSYDTNNVIFGGGTKLTVL
notes: The junction between scFv and Fc is not described; also called anti-CD137 14#ScFv; not shown: human IgG1-Fc domain, residues 104-330 of UniProt P01857
Take B1: the Kd – broadly, a measure of binding affinity in units of concentration – with hCD137-muFc [1] was 23.8 nM. For the same molecule, in the assay with hCD137-muFc [1], the koff (commonly a measure of how fast the partners let go of each other) was found to be 0.000263 s⁻¹. In addition, the kon – broadly, a measure of how fast the partners come together – with hCD137-muFc [1] was 11200 M⁻¹ s⁻¹. The binding result in assay [2], in assay [3] and in assay [4] was “no binding” throughout.

B2: anti-CD137 14#mAb new (antibody, V domains shown)
VH: QVQLQQSGPGLVKPSQTLSLTCAISGDSVSSNSAAWNWIRQSPSRGLEWLGRTYYRSKWYNDYAPSVESRITINPDTSKNQFSLQLSSVTPEDTAVYYCARDPPYVLSTFDIWGQGTMVTVSS
VL: NFMLTQPPSVSESPGKTVTISCTRSSGNIASFYVQWFQQRPGSSPTTVIYDDDQRPSGVPDRFSGSIDRSSNSASLTISGLTTDDEADYYCQSYDINKVIFGGGTKLTVL
notes: L50 E to D, L93 T to I and L95 N to K against C14; IgG4 / lambda; also called C14 mAbnew; C14 Mab new; not shown: human IgG4 constant region, UniProt P01861 (same method as C14mAb); human lambda light chain constant region, UniProt A0M8Q6 (same method as C14mAb)
Take B2: in the assay with RhCD137-muFc, the binding result is listed as “binds”. Further, in the assay with hCD137-muFc [5], the affinity, expressed as Kd, was 2.68 nM; the koff is 0.000907 s⁻¹; the kon was found to be 338000 M⁻¹ s⁻¹.

B3: anti-hCD137 C14 mAb (antibody, human IgG4, V domains shown)
VH: B2 VH
VL: B2 VL with D51E, I96T, K98N
notes: domain: constant region; Human IgG4 / lambda antibody made in HEK293; also called anti-CD137 14#mAb; not shown: human immunoglobulin lambda light chain constant region, UniProt A0M8Q6
Consider B3, for which the binding result in assay [2], in assay [3] and in assay [4] was “no binding” in each case.

B4: anti-hCD137 C2 scFv (scFv)
scFv: EVQLVESGGGLVQPGGSLRLSCAASGFTVSDYYMNWIRQAPGKGLEWVSYISSSASGSTIYYADSVKGRFTISRDNANNSLYLHMDSLRAEDTAIYFCARVVPAGSGWRWFDPWGQGTLVTVSSGGGGSGGGGSGGGGSQSVLIQPPSASGSPGQSVTISCTGISSDVGAYDYVSWYQQHPGKVPKLMIYEVSKRPSGVPDRFSGSKSGDTASLTVSGLQAEDEADYYCSSHAGSNNFYVFGTGTKLTVL
notes: The junction between scFv and Fc is not described; not shown: human IgG1-Fc domain, residues 104-330 of UniProt P01857
B4: in the assay with hCD137-muFc [1], the Kd was 11.6 nM, the koff is 0.000128 s⁻¹ and the kon was found to be 11000 M⁻¹ s⁻¹. In addition, the binding result in assay [2] was “no binding”. In addition, in assay [3], the binding result was “no binding”. Further, the binding result in assay [4] was “no binding”.

The record behind these values is patent US20180282422A1 (DINGFU BIOTARGET, published 2018).
